# Measured values from PMC3131385, “TBP Binding-Induced Folding of the Glucocorticoid Receptor AF1 Domain Facilitates Its Interaction with Steroid Receptor Coactivator-1” (PLoS ONE, 2011).
# T1: TBPC, 181 C-terminal residues of human TATA box binding protein (TBP) (human, UniProt P20226 159-339)
# T1 chain: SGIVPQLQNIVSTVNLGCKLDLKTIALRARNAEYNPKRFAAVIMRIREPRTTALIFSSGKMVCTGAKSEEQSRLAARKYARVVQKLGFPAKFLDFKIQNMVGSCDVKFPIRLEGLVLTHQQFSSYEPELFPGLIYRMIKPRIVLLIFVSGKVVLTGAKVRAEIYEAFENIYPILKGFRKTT
# B1: glucocorticoid receptor (GR) N-terminal activation function domain AF1 (domain or fragment, human, UniProt P04150 77-262, looked up)
# chain: DLSKAVSLSMGLYMGETETKVMGNDLGFPQQGQISLSSGETDLKLLEESIANLNRSTSVPENPKSSASTAVSAAPTEKEFPKTHSDVSSEQQHLKGQTGTNGGNVKLYTTDQSTFDILQDLEFSSGSPGKETNESPWRSDLLIDENCLLSPLAGEDDSFLLEGNSNEDCKPLILPDTKPKIKDNGD
# notes: human glucocorticoid receptor, AF1 domain, amino acid residues 77-262; made from human GR cDNA digested with BglII; also called GR AF1
# B2: TBPC, 181 C-terminal residues of human TATA box binding protein (TBP) (domain or fragment, UniProt P20226 159-339, looked up)
# chain: T1 chain
# notes: source: E. coli BL21(DE3), purified (NTA column, imidazole step-gradient)
# B3: GR AF1:TBPC complex (complex, human)
# chain 1: B1 chain
# chain 2: T1 chain
# notes: human glucocorticoid receptor, AF1 domain, amino acid residues 77-262; as m1; as m2; AF1, TBPC and the nuclear extract were mixed at once; only AF1 was detected on the blot; also called AF1 complexed with TBPC; source: purified AF1 and purified TBPC (10 µg) mixed together with HeLa nuclear extract
# What was measured:
# [1] = biological target: T1, TBPC, 181 C-terminal residues of human …; assay: SPR
# [2] = biological target: B2; assay: SPR; TBPc immobilised on C1 chip (Fc2, 200-250 RU, through ionic interaction), AF1 as analyte 0.2-6.4 µM, multi-cycle kinetics, room temperature, 0.01 M HEPES pH 7.4, 0.15 M NaCl, 50 µM EDTA, 0.05% Tween-20; 1:1 Langmuir model, KD = kd/ka; details: both partners purified
# [3] = biological target: B1; assay: circular dichroism titration; far-UV CD at 22°C, AF1 fixed at 4.5 µM, TBPC varied (AF1:TBPC 1:0.25 to 1:2); ellipticity at 220 nm, experimental against theoretical sum; details: both partners purified
# [4] = biological target: B1; assay: SPR; TBPc immobilised on C1 chip (Fc2, 200-250 RU, through ionic interaction), AF1 as analyte 0.2-6.4 µM, multi-cycle kinetics, room temperature, 0.01 M HEPES pH 7.4, 0.15 M NaCl, 50 µM EDTA, 0.05% Tween-20; 1:1 Langmuir model, KD = kd/ka; details: both partners purified
# [5] = biological target: T2, steroid receptor coactivator-1 (SRC-1) (human (endogenous in HeLa), UniProt Q15788 1-1441); assay: co-IP; SRC-1 antibody on protein A/G-agarose beads; HeLa nuclear extract (0.5 mg total protein) mixed with 10 µg purified AF1 and/or TBPC, 4°C; blot with GR AF1 antibody; details: one partner purified
# T2 construct: source: endogenous, HeLa nuclear extract
# T2 sequence (Q15788 whole entry): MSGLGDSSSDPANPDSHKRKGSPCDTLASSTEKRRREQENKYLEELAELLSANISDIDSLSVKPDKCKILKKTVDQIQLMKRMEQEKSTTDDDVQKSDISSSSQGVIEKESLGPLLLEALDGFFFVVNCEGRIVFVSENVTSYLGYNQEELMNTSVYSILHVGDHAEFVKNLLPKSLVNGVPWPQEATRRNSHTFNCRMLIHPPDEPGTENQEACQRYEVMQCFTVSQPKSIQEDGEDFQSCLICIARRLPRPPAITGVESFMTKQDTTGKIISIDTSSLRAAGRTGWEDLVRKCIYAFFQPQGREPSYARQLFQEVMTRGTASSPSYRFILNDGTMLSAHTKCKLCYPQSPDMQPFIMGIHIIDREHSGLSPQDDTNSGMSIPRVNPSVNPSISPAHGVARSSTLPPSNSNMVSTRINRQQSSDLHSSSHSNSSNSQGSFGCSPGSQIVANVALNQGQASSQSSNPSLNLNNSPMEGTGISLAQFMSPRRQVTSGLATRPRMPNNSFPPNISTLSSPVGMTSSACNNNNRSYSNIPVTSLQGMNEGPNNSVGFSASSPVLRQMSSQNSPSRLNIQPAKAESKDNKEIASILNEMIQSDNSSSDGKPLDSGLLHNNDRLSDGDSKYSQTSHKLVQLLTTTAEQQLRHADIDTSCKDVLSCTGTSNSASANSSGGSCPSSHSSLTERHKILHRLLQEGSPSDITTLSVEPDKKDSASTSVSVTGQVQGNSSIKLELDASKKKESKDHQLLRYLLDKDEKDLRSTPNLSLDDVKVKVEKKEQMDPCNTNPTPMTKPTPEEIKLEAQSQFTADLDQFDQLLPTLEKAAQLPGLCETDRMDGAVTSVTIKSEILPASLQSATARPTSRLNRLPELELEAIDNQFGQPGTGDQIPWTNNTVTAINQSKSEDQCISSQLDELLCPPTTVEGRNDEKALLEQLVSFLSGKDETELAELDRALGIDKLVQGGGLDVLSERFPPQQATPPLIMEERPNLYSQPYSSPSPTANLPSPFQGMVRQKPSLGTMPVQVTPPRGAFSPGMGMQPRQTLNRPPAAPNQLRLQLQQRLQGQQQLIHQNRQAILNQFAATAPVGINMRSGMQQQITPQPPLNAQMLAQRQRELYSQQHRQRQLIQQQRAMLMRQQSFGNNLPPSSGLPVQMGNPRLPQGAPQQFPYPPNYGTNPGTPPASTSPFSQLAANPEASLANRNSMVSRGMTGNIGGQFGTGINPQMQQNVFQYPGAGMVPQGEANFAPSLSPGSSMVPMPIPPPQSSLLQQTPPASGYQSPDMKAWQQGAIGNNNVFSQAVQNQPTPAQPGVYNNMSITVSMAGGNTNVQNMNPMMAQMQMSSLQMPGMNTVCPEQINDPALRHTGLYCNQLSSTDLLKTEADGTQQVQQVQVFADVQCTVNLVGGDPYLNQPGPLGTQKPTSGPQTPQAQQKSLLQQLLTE
binder,measurement,setting,value
B1,koff,[1],0.00143 s⁻¹
same,stoichiometry N,[2],1
B2,stoichiometry N,[3],~1
same,Kd,[4],460 nM
B3,fold increase against AF1 alone,[5],~8 fold
